Laboratory results: article PMC10202384

Biological target: recombinant monomeric RBD of the SARS-CoV-2 spike protein, tag cleaved, labelled with Alexa Fluor 488 (SARS-CoV-2) (UniProt P0DTC2)
Test: fluorescence polarisation

platelet-derived purified human αIIbβ3 protein (from UniProt P05106 27-788) (complex)
Kd: 96 nM
stoichiometry N: 1.3
